Experimental findings from patent publication US11732027B2, “Protease-activated receptor-2 modulators” (Oasis Pharmaceuticals, LLC, priority 2015, dated 2023) are described below.

Numbered stars: 1 amine (or outer) side, 2 acyl side, 3 side chain; on linkers, the order of the positions; unused ones are H or OH. Square brackets hold non-standard residues; d marks the D form. * marks the point of attachment. εLys = N[C@@H](CCCCN[*:1])C(=O)[*:2]; Palmitoyl = CCCCCCCCCCCCCCCC(=O)*; Cit = NC(=O)NCCC[C@H](N)C(=O)O; Ahx = NCCCCCC(=O)O; βAla = NCCC(=O)O

The target in one series is T1, PAR2 (Homo sapiens, UniProt P55085).
T1 construct: SW620 human colon adenocarcinoma cells that endogenously express PAR2; endogenous in cells; host or cells: SW620 human colon adenocarcinoma cells
T1 sequence (P55085 26-397): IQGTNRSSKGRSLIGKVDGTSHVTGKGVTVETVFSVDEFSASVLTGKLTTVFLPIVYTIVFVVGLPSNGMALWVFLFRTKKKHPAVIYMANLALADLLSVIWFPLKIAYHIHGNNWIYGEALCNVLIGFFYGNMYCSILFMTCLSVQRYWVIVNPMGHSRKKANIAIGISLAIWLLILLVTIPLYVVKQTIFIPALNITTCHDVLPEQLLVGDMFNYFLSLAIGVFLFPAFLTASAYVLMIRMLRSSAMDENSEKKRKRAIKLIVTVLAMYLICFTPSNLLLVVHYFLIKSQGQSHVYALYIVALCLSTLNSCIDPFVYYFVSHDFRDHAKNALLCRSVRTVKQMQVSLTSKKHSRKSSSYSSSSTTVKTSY
In words: Calcium flux assay, antagonist activity against SLIGRL in SW620 cells endogenously expressing PAR2. In kind it is cell-based. The following applies: 1 min pretreatment, 8 μM SLIGRL agonist. As for the experimental part: Table 2 provides the antagonist activity for the resulting palmitoylated peptides (SEQ ID NO: 1-11, 13-41, and 70) of Table 1. Table 2 also provides the antagonist activity for the resulting myristoylated peptide SEQ ID NO: 12 of Table 1. Antagonist activity of the peptides were measured using calcium flux assays with SW620 human colon adenocarcinoma cells that endogenously express PAR2. The calcium signal of […] SLIGRL (SEQ ID NO: 73) following 1 min pretreatment with 3 μM or 10 μM of palmitoylated peptides. Final concentration of DMSO vehicle was 0.2%. Antagonist activity of 3 μM and 10 μM peptides against 8 μM SLIGRL (SEQ ID NO: 73; a known PAR2 agonist) was measured by maximal calcium flux. Experiments were repeated at least 2-3 times each and gave similar results.

A further series relates to db/db mouse. In words: Obese-diabetic (db/db) mouse model, daily SC treatment for 3 weeks. In kind it is in vivo. The following applies: db/db mice, 10 mg/kg SC daily, over 3 weeks. Here is the method:
FIGS. 1A to 1B. Male obese-diabetic (db/db) mice, 6-8 weeks of age were purchase from Charles River Labs. The db/db mouse is a […] animal which serves as a model for diabetes, obesity and dyslipidemia. Animals were randomized according to blood glucose and body weight on day −2 and were allowed to eat a normal chow diet ad libitum. Treatment was initiated from day 0 with mice receiving daily subcutaneous (SC) injections (5 mL/kg) at 7-10 AM. HbA1c was monitored on days 0, 7, 14 and 21. Mice (n=10) were treated daily with either 10 mg/kg N-palmitoylated-SEQ70 (PZ-235) or vehicle (“Veh”). […] HbA1c levels reflect long-term blood glucose levels. […]
FIG. 2. Diabetic mice from the experiment in FIGS. 1A and 1B had their morning blood glucose measured thrice weekly.
FIG. 3. Diabetic mice had their blood glucose profile monitored on days 1, 8 and 22. […]
FIGS. 5A to 5B. Diabetic mice had their plasma triglyceride levels measured at baseline and after 3 weeks of treatment with PZ-235 versus vehicle.
FIG. 6. Diabetic mice had their liver triglyceride levels measured after 3 weeks of treatment with PZ-235 versus vehicle. At termination of the 3 week experiment, livers were isolated from the diabetic mice, snap frozen and liver triglycerides measured.

In the case of 3 (DSEKKRKQAIKLI) [compound 3], the “Max (% Inh), maximal calcium flux” value amounted to 49% with PAR2 (3 uM peptide) and 89% with PAR2 (10 uM peptide). Taken in the same sequence, the figures for “8 (Pal-AIHHDSE[dP]RKSAAKL-NH2) [compound 8]” were 16% and 18%. With 39 (GDENSEKRWLWAIK) [compound 39], the entries for the “Max (% Inh), maximal calcium flux” value with PAR2 (3 uM peptide) and in the series with PAR2 (10 uM peptide) were 23% and 93%, respectively. As for “20 (Pal-[εLys]AIDENSEKKFKSAIKL-NH2) [compound 20]”, the “Max (% Inh), maximal calcium flux” value in the series with PAR2 (3 uM peptide) turned out to be 17%; with PAR2 (10 uM peptide) it was 86%. Regarding “11 (Pal-PLHHDSEPKR[dK]SAIK[dL]-NH2) [compound 11]”, the entries for the “Max (% Inh), maximal calcium flux” value with PAR2 (3 uM peptide) and in the series with PAR2 (10 uM peptide) were 31% and 95%, respectively.

37 (GDENSEKKRKQAIKLI) [compound 37]: the “Max (% Inh), maximal calcium flux” value worked out at 0% in the series with PAR2 (3 uM peptide) and 65% with PAR2 (10 uM peptide). On to “34 (Palmitoyl-GDENSEKK[Cit]KQAIK-NH2) [compound 34]”, for which the “Max (% Inh), maximal calcium flux” value in the series with PAR2 (3 uM peptide) is reported as 23%; with PAR2 (10 uM peptide) it was 93%. Taken in the same sequence, the figures for 25 (AMDENSEKKYKSAIKL) [compound 25] were 23% and 29%.

Take 30 (GLDENSEPKRKSAIKLI) [compound 30]: the “Max (% Inh), maximal calcium flux” value is listed as 6% in the series with PAR2 (3 uM peptide) and 0% with PAR2 (10 uM peptide). Turning to 4 (RSSAIDENSEKKRKSAIK) [compound 4], the “Max (% Inh), maximal calcium flux” value stood at 24% with PAR2 (3 uM peptide) and 82% with PAR2 (10 uM peptide).

In the case of 31 (GDENHEKKRKQAIK) [compound 31], the “Max (% Inh), maximal calcium flux” value is listed as 38% in the series with PAR2 (3 uM peptide) and 65% with PAR2 (10 uM peptide). For “35 (Pal-GDENSEKKRKSAIK[dA]-NH2) [compound 35]”, the “Max (% Inh), maximal calcium flux” value with PAR2 (3 uM peptide) is listed as 23%; with PAR2 (10 uM peptide) it was 65%. Taken in the same sequence, the figures for 1 (GHENSEKKRKQAIK) [compound 1] were 33% and 85%. In the case of 2 (GDHNSEKKRKQAIK) [compound 2], the “Max (% Inh), maximal calcium flux” value came to 23% in the series with PAR2 (3 uM peptide) and 78% in the series with PAR2 (10 uM peptide). With 33 (GPDENSEKKPRKQAIK) [compound 33], the figures for the “Max (% Inh), maximal calcium flux” value with PAR2 (3 uM peptide) and with PAR2 (10 uM peptide) were 23% and 93%, respectively.

Regarding “9 (Pal-GLHHDSEPKRKSAIKL[dI]-NH2) [compound 9]”, the “Max (% Inh), maximal calcium flux” value with PAR2 (3 uM peptide) turned out to be 75%; in the series with PAR2 (10 uM peptide), 95%. With 40 (GDENSEKKRKWAIK) [compound 40], the figures for the “Max (% Inh), maximal calcium flux” value in the series with PAR2 (3 uM peptide) and with PAR2 (10 uM peptide) were 38% and 93%, respectively. With “7 (Pal-AIHHDSE[dP]KRKSAIKL-NH2) [compound 7]”, the “Max (% Inh), maximal calcium flux” value is 50% with PAR2 (3 uM peptide) and 84% with PAR2 (10 uM peptide). Taken in the same sequence, the figures for “16 (Pal-GLHHDSEPKR[dK][βAla]IK[dV]-NH2) [compound 16]” were 17% and 60%. Take 38 (GDENSEKKRKQAIK) [compound 38]: the “Max (% Inh), maximal calcium flux” value in the series with PAR2 (3 uM peptide) was determined as 23%; in the series with PAR2 (10 uM peptide), 65%. As to 36 (GDENSEKKRKQAIKL) [compound 36], the “Max (% Inh), maximal calcium flux” value in the series with PAR2 (3 uM peptide) and in the series with PAR2 (10 uM peptide) was 65% throughout. As to “14 (Pal-[εLys]LDENSEKKF[dK]SAIKL[dV]-NH2) [compound 14]”, the “Max (% Inh), maximal calcium flux” value came to 8% in the series with PAR2 (3 uM peptide) and 26% with PAR2 (10 uM peptide). For 32 (PGDENSEKPKRKQAIK) [compound 32], the “Max (% Inh), maximal calcium flux” value in the series with PAR2 (10 uM peptide) was determined as 93%. As to 41 (MDENSEKKRKRAIK) [compound 41], the “Max (% Inh), maximal calcium flux” value with PAR2 (3 uM peptide) is given as 38%; in the series with PAR2 (10 uM peptide) it was 65%. In the case of `CCCCCCCCCCCCCCCC(=O)N[C@@H](CCCNC(=N)N)C(=O)N[C@@H](CO)C(=O)N[C@@H](CO)C(=O)N[C@@H](C)C(=O)N[C@@H](CCSC)C(=O)N[C@@H](CC(=O)O)C(=O)N[C@@H](CCC(=O)O)C(=O)N[C@@H](CC(N)=O)C(=O)N[C@@H](CO)C(=O)N[C@@H](CCC(=O)O)C(=O)N[C@@H](CCCCN)C(=O)N[C@@H](CCCCN)C(=O)N[C@@H](CCCNC(=N)N)C(=O)N[C@@H](CCCCN)C(=O)N[C@@H](CO)C(=O)N[C@@H](C)C(=O)N[C@H](C(=O)N[C@@H](CCCCN)C(N)=O)[C@@H](C)CC` [SEQ ID NO 70], in the series on db/db mouse, the “food intake versus vehicle group” value is on record as “did not vary significantly” and the “weight gain versus vehicle group” value is on record as “did not vary significantly”. Regarding 5 (AIDENSEKKFKSAIKL) [compound 5], the “Max (% Inh), maximal calcium flux” value in the series with PAR2 (3 uM peptide) came out at 18%; with PAR2 (10 uM peptide), 32%. In the case of “17 (Palmitoyl-[Ahx]LHHDSEPKR[dK]SAIK[dV]-NH2) [compound 17]”, the “Max (% Inh), maximal calcium flux” value with PAR2 (3 uM peptide) was found to be 10%; with PAR2 (10 uM peptide) it was 66%.
